{"source": "paper PMC3237451", "about": "“Missense Mutation in the Second RNA Binding Domain Reveals a Role for Prkra (PACT/RAX) during Skull Development”", "binders": {"B1": {"name": "30-bp dsRNA probe (dsRNA)", "RNA 1": "GGGAACAAAAGCUGGGUACCGGGCCCCCCC", "RNA 2": "GGGGGGGCCCGGUACCCAGCUUUUGUUCCC"}}, "biological_target": "T1, His-RAX (S130P) (Mus musculus (cDNA from L929 cells), UniProt Q9WTX2 1-313, S130P)", "T1 sequence": "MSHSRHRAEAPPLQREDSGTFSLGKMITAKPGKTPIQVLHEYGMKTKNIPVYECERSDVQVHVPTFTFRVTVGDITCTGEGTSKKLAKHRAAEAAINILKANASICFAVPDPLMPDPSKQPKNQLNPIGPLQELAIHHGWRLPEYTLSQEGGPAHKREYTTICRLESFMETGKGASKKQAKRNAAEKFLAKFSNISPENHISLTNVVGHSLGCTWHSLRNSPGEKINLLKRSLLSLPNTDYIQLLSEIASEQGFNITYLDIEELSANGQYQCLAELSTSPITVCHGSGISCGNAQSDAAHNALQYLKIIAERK", "assay": "EMSA; 20 mM Tris pH 7.5, 50 mM KCl, 2 mM MgCl2, 2 mM MnCl2, 5% glycerol; EMSA 15 min at room temperature, 5% acrylamide gel in 0.25x TBE run cold", "conditions": "protein: recombinant; blunt"}
{"binder": "B1", "values": [{"measurement": "binding result", "result": "no binding"}]}
